Molecular target: T1, Sizn1 bait (full-length Sizn1 coding sequence in pGBKT7) (mouse, UniProt Q9CZA5 1-402)
T1 construct: Yeast two-hybrid bait in AH109 cells; also called Sizn bait construct; Sizn1 as a bait; not shown: fusion partner supplied by vector pGBKT7 (Clontech)
Assay: yeast two-hybrid screen of an E11 mouse library

T1 sequence (Q9CZA5 whole entry, the tested form may be a part): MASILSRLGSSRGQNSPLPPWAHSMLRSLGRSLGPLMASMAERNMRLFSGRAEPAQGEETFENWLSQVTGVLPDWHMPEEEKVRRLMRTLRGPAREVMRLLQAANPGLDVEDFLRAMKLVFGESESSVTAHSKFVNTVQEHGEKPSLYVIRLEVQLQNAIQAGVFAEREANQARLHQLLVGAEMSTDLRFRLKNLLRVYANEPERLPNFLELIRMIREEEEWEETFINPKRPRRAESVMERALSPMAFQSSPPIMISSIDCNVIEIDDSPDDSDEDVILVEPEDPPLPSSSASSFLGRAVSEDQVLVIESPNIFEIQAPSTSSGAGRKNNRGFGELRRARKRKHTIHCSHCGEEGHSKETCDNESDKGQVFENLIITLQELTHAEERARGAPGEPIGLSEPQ

B1: amino acids 382-495 of Smad6 corresponding to the MH2 domain of Smad6 (other, mouse, UniProt O35182 382-495, looked up)
chain: RRTRSKIGFGILLSKEPDGVWAYNRGEHPIFVNSPTLDAPGGRALVVRKVPPGYSIKVFDFERSGLLQHADAAHGPYDPHSVRISFAKGWGPCYSRQFITSCPCWLEILLNNHR
notes: Positive prey clone of the yeast two-hybrid screen; also called Smad6 MH2 domain; not shown: library fusion partner of the Matchmaker3 two-hybrid prey vector; not described
binding result: binds

Source: patent publication US20070009927A1 (published 2007)
